For two molecules, Kd results are on record in article PMC2367452, “HOXA13 Is Essential for Placental Vascular Patterning and Labyrinth Endothelial Specification”.

Data set [1] deals with T1, HOXA13 DNA-binding domain peptide (A13-DBD) (UniProt Q62424 320-386). Description: fluorescence anisotropy; legend says affinity ablated; titrated only to 200 nM; FP: 1 nM fluorescein-labeled hairpin, 0-200 nM HOXA13-DBD, 15 C, buffer per ref 71 (not given); EMSA: Promega Gel Shift Binding System. As to conditions: protein: recombinant, label: fluorescein, 14 bp stem, CCCCC loop.

Data set [2] addresses T1, HOXA13 DNA-binding domain peptide …. Description: fluorescence anisotropy; abstract gives range 27-42 nM; FP: 1 nM fluorescein-labeled hairpin, 0-200 nM HOXA13-DBD, 15 C, buffer per ref 71 (not given); EMSA: Promega Gel Shift Binding System. The conditions noted are these: protein: recombinant, label: fluorescein, CCCCCCC-region loop.

T1 sequence (Q62424 320-386): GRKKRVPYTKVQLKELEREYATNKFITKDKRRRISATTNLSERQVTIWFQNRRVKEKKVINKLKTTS

In the case of TGACTGACTGACTGCCCCCCAGTCAGTCAGTCA (structured_DNA) [TGAC control hairpin], the Kd in data set [1] was found to be 0.25 ± 0.022 µM.
Regarding CTTATTATTAAAGGCCCCCCCTTTAATAATAAG (structured_DNA) [Foxf1 hairpin], the Kd in data set [2] was 0.048 ± 0.004 µM.
